Results from patent publication US20030199022.
Substitutions are numbered along the chain they refer to.

What was measured:
Experiment in all cases: cell_activity
[1] = molecular target: T1, ER3M (in cell) E203W,Q214A,H216G (Homo sapiens) (UniProt P03372); details: HepG2, 10 nM OHT
T1 sequence: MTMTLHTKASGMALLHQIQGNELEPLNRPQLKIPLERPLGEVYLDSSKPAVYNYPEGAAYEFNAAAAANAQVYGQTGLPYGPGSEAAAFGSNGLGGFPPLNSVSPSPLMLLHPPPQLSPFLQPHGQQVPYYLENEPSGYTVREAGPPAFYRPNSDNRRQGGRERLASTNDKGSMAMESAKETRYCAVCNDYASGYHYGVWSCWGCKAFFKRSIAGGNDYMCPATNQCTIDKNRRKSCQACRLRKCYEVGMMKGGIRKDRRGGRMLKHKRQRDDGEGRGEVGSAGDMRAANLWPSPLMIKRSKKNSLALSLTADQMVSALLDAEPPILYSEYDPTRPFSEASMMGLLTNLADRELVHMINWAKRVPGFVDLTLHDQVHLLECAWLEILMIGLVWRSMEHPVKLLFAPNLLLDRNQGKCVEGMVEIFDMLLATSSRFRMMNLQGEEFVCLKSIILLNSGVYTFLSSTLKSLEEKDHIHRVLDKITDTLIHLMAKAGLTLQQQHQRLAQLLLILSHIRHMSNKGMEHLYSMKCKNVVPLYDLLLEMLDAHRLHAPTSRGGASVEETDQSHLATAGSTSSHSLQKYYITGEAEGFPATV

[2] = molecular target: T2, ERα wild type (in cell) (Homo sapiens) (UniProt P03372); details: HepG2, OHT
T2 sequence: T1 sequence with W203E, A214Q, G216H

[3] = molecular target: T3, ER4.3 (in cell) E203W,Q214V,G215R,H216P,N217T (Homo sapiens) (UniProt P03372); details: HepG2, 10 nM OHT
T3 sequence: T1 sequence with A214V, G215R, G216P, N217T

Sequence “GCTAGCGGGCCACTGTGGCCCTGACAACTAGTAAGTCGGGCCACTGTGGCCCGACGTACTATCTCGAGGGGCCACTGTGGCCCTAGAGCTGCAGGTATCGGGCCACTGTGGCCCTAGTTCATTAAAGCTTGGGCCACTGTGGCCCATCAAGATATCGAGATGGGCCACTGTGGCCCATCGACAGGAATTCACGGGCCACTGTGGCCCATCAAGATATCGAGATGGGCCACTGTGGCCCATCGACTCTAGA (double strand) [ATL8/PAL]” has an activity (fold induction) [1] of 117, an activity (fold induction) [2] of 52 and an activity (fold induction) [3] of 172.
